Source: publication PMC314469, “Protein Interaction Networks by Proteome Peptide Scanning” (PLoS Biology, 2004)

Biological target: T1, Boi2 SH3 (BOI2_YEAST), P39969
T1 chain: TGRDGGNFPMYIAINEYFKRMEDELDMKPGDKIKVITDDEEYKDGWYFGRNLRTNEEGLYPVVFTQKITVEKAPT
Experiment: SPOT array

Row | Binder | normalised SPOT signal, Boehringer light units (BLU); mean over the file's lines of this peptide
1 | MSEPEVPFKVVAQF [YJL020C 1-14] | 64.8
2 | NAKPPLPIKAVTRP [YJL201W 440-453] | 48.5
3 | MVRPAPPRRADPEG [Q0297 11-24] | 1310
4 | NANPFLPNKHPVTQ [YGR076C 38-51] | 54
5 | NEYPSKPPKVKFPA [YDL064W 66-79] | 54.4
6 | MVTPSKPPKKSVGF [YCL063W 147-160] | 85.1
7 | MVLPPAPPKNSDPS [YFL036W 764-777] | 34.7
8 | NDDPVIPYKLSKDT [YHR164C 1037-1050] | 44.3
9 | NHIPPFPLRFSFAQ [YDR421W 532-545] | 35.5
10 | MSLPVTPVKSKVSS [YER032W 50-63] | 37.9
11 | NAPPYVPQRSKQPD [YBR114W 165-178] | 200

The next lines start with the values.

Row | normalised SPOT signal, Boehringer light units (BLU); mean over the file's lines of this peptide | Binder
12 | 168 | MRAPPSPRKSKSGH [YOR255W 1-14]
13 | 34.4 | MTDPDAPSKTDHKW [YLR178C 93-106]
14 | 33.6 | NEGPEYPTKIEKNQ [YKL101W 777-790]
15 | 25.8 | MTAPLWPNKNEKNH [YOR337W 1-14]
16 | 88.4 | MVTPREPKKRTTRK [YPR052C 1-14]
17 | 34.2 | NEVPTTPVRLILGQ [YOR195W 2-15]
18 | 5.7 | NINPKQPPKTSGEK [YMR179W 373-386]
19 | 34.4 | MTDPDAPSRTEHKW [YLR179C 77-90]

Biological target: T2, Rvs167 SH3 (RV167_YEAST), P39743
T2 chain: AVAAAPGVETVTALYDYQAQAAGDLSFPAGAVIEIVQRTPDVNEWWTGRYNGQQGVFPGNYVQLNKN
Experiment: SPOT array

Row | Binder | normalised SPOT signal, Boehringer light units (BLU); mean over the file's lines of this peptide
20 | MSEPEVPFKVVAQF [YJL020C 1-14] | 19.9
21 | NAKPPLPIKAVTRP [YJL201W 440-453] | 32.9
22 | MVRPAPPRRADPEG [Q0297 11-24] | 14400
23 | NANPFLPNKHPVTQ [YGR076C 38-51] | 81.9
24 | NEYPSKPPKVKFPA [YDL064W 66-79] | 60.2
25 | MVTPSKPPKKSVGF [YCL063W 147-160] | 114
26 | MVLPPAPPKNSDPS [YFL036W 764-777] | 79.6
27 | NDDPVIPYKLSKDT [YHR164C 1037-1050] | 54.5
28 | NHIPPFPLRFSFAQ [YDR421W 532-545] | 106
29 | MSLPVTPVKSKVSS [YER032W 50-63] | 111
30 | NAPPYVPQRSKQPD [YBR114W 165-178] | 14300

Further lines, results first:

Row | normalised SPOT signal, Boehringer light units (BLU); mean over the file's lines of this peptide | Binder
31 | 261 | MRAPPSPRKSKSGH [YOR255W 1-14]
32 | 32.5 | MTDPDAPSKTDHKW [YLR178C 93-106]
33 | 20.8 | NEGPEYPTKIEKNQ [YKL101W 777-790]
34 | 55.3 | MTAPLWPNKNEKNH [YOR337W 1-14]
35 | 163 | MVTPREPKKRTTRK [YPR052C 1-14]
36 | 48.6 | NEVPTTPVRLILGQ [YOR195W 2-15]
37 | 9.7 | NINPKQPPKTSGEK [YMR179W 373-386]
38 | 23 | MTDPDAPSRTEHKW [YLR179C 77-90]

Biological target: T3, Boi1 SH3 (BOI1_YEAST), P38041
T3 chain: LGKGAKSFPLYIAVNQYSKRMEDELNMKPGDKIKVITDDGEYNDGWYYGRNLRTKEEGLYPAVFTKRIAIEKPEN
Experiment: SPOT array

Row | Binder | normalised SPOT signal, Boehringer light units (BLU); mean over the file's lines of this peptide
39 | MSEPEVPFKVVAQF [YJL020C 1-14] | 74.2
40 | NAKPPLPIKAVTRP [YJL201W 440-453] | 2020
41 | MVRPAPPRRADPEG [Q0297 11-24] | 3640
42 | NANPFLPNKHPVTQ [YGR076C 38-51] | 28.5
43 | NEYPSKPPKVKFPA [YDL064W 66-79] | 66.8
44 | MVTPSKPPKKSVGF [YCL063W 147-160] | 149
45 | MVLPPAPPKNSDPS [YFL036W 764-777] | 54
46 | NDDPVIPYKLSKDT [YHR164C 1037-1050] | 92.9
47 | NHIPPFPLRFSFAQ [YDR421W 532-545] | 119
48 | MSLPVTPVKSKVSS [YER032W 50-63] | 0.6
49 | NAPPYVPQRSKQPD [YBR114W 165-178] | 558

Second part, the binder after the results:

Row | normalised SPOT signal, Boehringer light units (BLU); mean over the file's lines of this peptide | Binder
50 | 81.1 | MRAPPSPRKSKSGH [YOR255W 1-14]
51 | -0 | MTDPDAPSKTDHKW [YLR178C 93-106]
52 | 125 | NEGPEYPTKIEKNQ [YKL101W 777-790]
53 | 32.9 | MTAPLWPNKNEKNH [YOR337W 1-14]
54 | 187 | MVTPREPKKRTTRK [YPR052C 1-14]
55 | 76.1 | NEVPTTPVRLILGQ [YOR195W 2-15]
56 | 24.7 | NINPKQPPKTSGEK [YMR179W 373-386]
57 | 124 | MTDPDAPSRTEHKW [YLR179C 77-90]

Biological target: T4, Yhr016c SH3 (YSC84_YEAST), P32793
T4 chain: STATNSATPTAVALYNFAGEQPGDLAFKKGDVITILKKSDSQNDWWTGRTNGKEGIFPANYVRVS
Experiment: SPOT array

Row | Binder | normalised SPOT signal, Boehringer light units (BLU); mean over the file's lines of this peptide
58 | MSEPEVPFKVVAQF [YJL020C 1-14] | 105
59 | NAKPPLPIKAVTRP [YJL201W 440-453] | 288
60 | MVRPAPPRRADPEG [Q0297 11-24] | 7790
61 | NANPFLPNKHPVTQ [YGR076C 38-51] | 352
62 | NEYPSKPPKVKFPA [YDL064W 66-79] | 54.8
63 | MVTPSKPPKKSVGF [YCL063W 147-160] | 361
64 | MVLPPAPPKNSDPS [YFL036W 764-777] | 273
65 | NDDPVIPYKLSKDT [YHR164C 1037-1050] | 233
66 | NHIPPFPLRFSFAQ [YDR421W 532-545] | 2580
67 | MSLPVTPVKSKVSS [YER032W 50-63] | 257
68 | NAPPYVPQRSKQPD [YBR114W 165-178] | 8020

The remaining lines, values ahead:

Row | normalised SPOT signal, Boehringer light units (BLU); mean over the file's lines of this peptide | Binder
69 | 1100 | MRAPPSPRKSKSGH [YOR255W 1-14]
70 | 109 | MTDPDAPSKTDHKW [YLR178C 93-106]
71 | 109 | NEGPEYPTKIEKNQ [YKL101W 777-790]
72 | 257 | MTAPLWPNKNEKNH [YOR337W 1-14]
73 | 768 | MVTPREPKKRTTRK [YPR052C 1-14]
74 | 2090 | NEVPTTPVRLILGQ [YOR195W 2-15]
75 | 225 | NINPKQPPKTSGEK [YMR179W 373-386]
76 | 239 | MTDPDAPSRTEHKW [YLR179C 77-90]

Biological target: T5, Yfr024 SH3 (LSB3_YEAST), P43603
T5 chain: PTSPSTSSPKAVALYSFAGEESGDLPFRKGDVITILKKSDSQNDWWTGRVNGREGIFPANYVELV
Experiment: SPOT array

Row | Binder | normalised SPOT signal, Boehringer light units (BLU); mean over the file's lines of this peptide
77 | MSEPEVPFKVVAQF [YJL020C 1-14] | 48.9
78 | NAKPPLPIKAVTRP [YJL201W 440-453] | 1870
79 | MVRPAPPRRADPEG [Q0297 11-24] | 18800
80 | NANPFLPNKHPVTQ [YGR076C 38-51] | 1430
81 | NEYPSKPPKVKFPA [YDL064W 66-79] | 415
82 | MVTPSKPPKKSVGF [YCL063W 147-160] | 2650
83 | MVLPPAPPKNSDPS [YFL036W 764-777] | 892
84 | NDDPVIPYKLSKDT [YHR164C 1037-1050] | 198
85 | NHIPPFPLRFSFAQ [YDR421W 532-545] | 6920
86 | MSLPVTPVKSKVSS [YER032W 50-63] | 2120
87 | NAPPYVPQRSKQPD [YBR114W 165-178] | 11800

Further lines, results first:

Row | normalised SPOT signal, Boehringer light units (BLU); mean over the file's lines of this peptide | Binder
88 | 1240 | MRAPPSPRKSKSGH [YOR255W 1-14]
89 | 56.6 | MTDPDAPSKTDHKW [YLR178C 93-106]
90 | 127 | NEGPEYPTKIEKNQ [YKL101W 777-790]
91 | 109 | MTAPLWPNKNEKNH [YOR337W 1-14]
92 | 620 | MVTPREPKKRTTRK [YPR052C 1-14]
93 | 2530 | NEVPTTPVRLILGQ [YOR195W 2-15]
94 | 207 | NINPKQPPKTSGEK [YMR179W 373-386]
95 | 122 | MTDPDAPSRTEHKW [YLR179C 77-90]
